Assay results from US20250042994A1 (HAINAN SIMCERE ZAIMING PHARMACEUTICAL, published 2025).

T1: Human CD19-his protein (human, UniProt P15391 20-291)
T1 construct: bought protein; also called recombinant human CD19-His; CD19 full-length protein; not shown: His tag
T1 sequence (looked up): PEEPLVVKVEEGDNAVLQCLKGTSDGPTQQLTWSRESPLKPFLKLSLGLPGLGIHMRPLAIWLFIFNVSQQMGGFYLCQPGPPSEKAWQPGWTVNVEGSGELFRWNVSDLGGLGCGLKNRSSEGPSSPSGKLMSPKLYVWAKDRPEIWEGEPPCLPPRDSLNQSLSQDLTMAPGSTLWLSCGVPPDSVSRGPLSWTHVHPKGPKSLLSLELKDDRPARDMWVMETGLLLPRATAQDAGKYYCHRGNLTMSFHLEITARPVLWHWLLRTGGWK

T2: human CD19 exon1-3-His tag protein (human, UniProt P15391 20-186, limits assumed)
T2 construct: membrane-distal part of the extracellular region, made in HEK293E cells; not shown: His tag
T2 sequence (looked up): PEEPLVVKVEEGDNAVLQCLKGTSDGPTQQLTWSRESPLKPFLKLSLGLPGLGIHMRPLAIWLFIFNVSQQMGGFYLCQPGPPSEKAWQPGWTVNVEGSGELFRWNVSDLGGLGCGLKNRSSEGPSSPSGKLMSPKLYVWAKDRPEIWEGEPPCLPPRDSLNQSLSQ

B1: F3.126.15 (antibody, human IgG1, V domains shown)
VH: QVQLQQPGAELVMPGASVKLSCKASGYTFTSYWMHWVKQRPGQGLEWIGEIDPSDSYTTYNQNFKGKATLTVDISTSTAYIQLSNLTSEDSAVYYCARLTGNYIHYWGQGTTLTVSS
VL: DIVMTQSHKFMSTSVGDRVSITCKASQDVSPAVAWYQQRPGQCPKLLIFSSSYRSTGVPDRFTGSGSGTDFTFTISSVQAEDLAVYYCQQHYSLPLTFGAGTKLELK
notes: human-murine chimeric antibody, human IgG1 constant
B2: F4.191.1 (antibody, human IgG1, V domains shown)
VH: QVQLQQPGAELVRPGASVKLSCKASGYTFTSYWINWVKQRPGQGLEWIGNIHPSDSYTNYNQKFKDKATLTVDKSSSTAYMQFSSPTSEDSAVYYCTREDYYYGSNYDAMDYWGQGTSVTVSS
VL: DIVMTQSHKFMSTSVGDRVNITCKASQDVGSSVAWYQQKPGQSPKLLIYWASTRHAGVPDRFTGSGSGADFTLTISNVQSEDLADYFCQQYSTYPLTFGAGTKLELK
notes: as for B1
B3: F4.125.12 (antibody, human IgG1, V domains shown)
VH: EVKLVESGGGLVQPGGSLKLSCAASGFTFSTYTMSWVRQTPEKRLEWVAFISSGGGHINYPDTVKGRFTISRDNAKNTLYLQMSSLKSEDTAMYYCARHSYWFFDVWGAGTTVTVSS
VL: DVQITQSPSYLAASPGETITINCRASKNIDTYLAWYQEKPGKTNKLLIYSGSTLQSGIPSRFRGGGSGTDFTLTICSLEPEDFAMYYCQQHNEYPLTFGAGTKLELK
notes: as for B1
B4: F4.35.5 (antibody, human IgG1, V domains shown)
VH: EIQLQQSGPELVKPGASVKVSCKASGYAFTSYNMYWVKQSHGKSLEWIGYIDPYNGDTRYNQKFKGKATLTVDKSSSTAYMHLNSLTSEDSAVYYCTRSGTGRDYWGQGTTLTVSS
VL: QIVLTQSPAIMSASPGEKVTMTCSASSSISYMFWFQQKPGSSPRLLIYDTSSLASGVPVRFSGSGSGTSYTLTISRMEAEDAATYYCQQWSNYPYTFGGGTKLEMK
notes: as for B1
B5: F4.22.6 (antibody, human IgG1, V domains shown)
VH: QVQLQQSGPELVKPGASVKISCKASGYAFSSFWMNWVKQRPGQGLEWIGRIYPGDGDTNYNGKFKGKATLTADKSSTTAYMHLSSLTSVDSAVYFCTRSVITAVVDWYFDVWGAGTTVTVSS
VL: QIVLSQSPAILSASPGEKVTLTCRASSSVNFMHWYQQKPGSSPKPWIYATSNLASGAPARFSGSGSGTSYSLTISRVEAEDAAAYYCQQWSSYPIFTFGSGTKLEIK
notes: as for B1
B6: F4.152.7 (antibody, human IgG1, V domains shown)
VH: QVQLQQPGAELVKPGASVKLSCKASGYTFTSYWMHWVKQRPGQGLEWIGEIDPSDSYTNYNQKFKGKATLTADKSSSTAYMQLSGLTSEDSAVYHCARGGDYDGYYVMDYWGQGTSVTVSS
VL: EIVLTQSPTTMAASPGEKITITCSASSSISSNYLHWYQQKPGFSPKLLIYRTSNLASGVPARFSGSGSGTSYSLTIGTMEADDVATYYCQQGSYIPRIFTFGSGTKLEIK
notes: as for B1
B7: F4.4.6 (antibody, human IgG1, V domains shown)
VH: QVQLQQSGAELARPGASVKLSCKASGYTFTSYWMQWVKQRPGQGLEWIGAIYPGDGDSRYTQKFKGKATLTADKSSSTAYMQLSSLASEDSAVYYCARSTTTVLGNNFEYWGQGTTLTVSS
VL: QIVLTQSPAIMSALPGEKVTMTCSASSSVSSMHWYQQKSGTSPKRWIYDTSKLASGVPARFSGSGSGTSYSLTISSMEAEDAATYYCQQWSSNPWTFGGGTKLEIK
notes: as for B1
B8: F4.21.2 (antibody, human IgG1, V domains shown)
VH: QVQLKQSGPGLVQPSQSLSITCTVSGFSLSTYGVHWVRQSPGRGLEWLGVIWIGGTTDYNAAFISRLTISKDNSRGQVFFKMDSLQANDTAIYYCARKGYYKYDGGYYYAMDYWGQGTSVTVSS
VL: DIQMTQSSSYLSVSLGGRVTITCKASDHINNWLAWYQQKPGNAPWLLISGATSLETGVPSRFSGSGSGKDYTLSISSLQTEDVATYYCQQYWSTPLTFGAGTKLELK
notes: as for B1
B9: F4.15.9 (antibody, human IgG1, V domains shown)
VH: QVQLQQSGPELVKPGASVKISCKASGYAFSSSWMNWLKQRPGQGLEWIGRIYPGDGDTNYNGKFKGKATLTADESSSTAYMQLSSLTSVDSAVYFCARGITTIITIAWFASWGQGTLVTVSA
VL: QIVLSQSPTILSASPGEKVTMTCRASSSVSYMHWYQQKPGSSPKPWIYATSNLASGVPPRFSGSGSGTSYSLTISRVGAEDAATYYCQQWSSDPWTFGGGTKLEIK
notes: as for B1
B10: F4.96.6 (antibody, human IgG1, V domains shown)
VH: EIQLQQSGPELVKPGASVKVSCKASGYAFSAYNIYWVKQSHGKSLEWIGYIDPYNSGTTYNQKFRGKATLTVDKSSNTAYMHLSSLTSEDSAVYYCTRDGDAMDYWGQGTSVTVSS
VL: EILLTQSPAIIAASPGEKVTITCSASSGVIYMNWYQQKPGSSPKIWIYDVSTLASGVPARFSGSGSGTSFSFTINSMEAEDVATYYCQQRSSYPYTFGGGTKLEIK
notes: as for B1
B11: F4.145.9 (antibody, human IgG1, V domains shown)
VH: EVQLVESGGGLVKPGGSLKLSCAAAGFAFSSYDMSWVRQIPEKRLEWVAYISAGGGNTYFLDTVKGRFTISRDHAKNTLSLQMSSLKSEDTAMYFCVRHGDYYRYFYAMDYWGQGSSVTVSS
VL: DIVMTQSHKFMSTSVGDRVSITCKASQDVGTAVAWSQQKPGQSPKLLIYWASTRHTGVPDRFTGSGSGTDFTLTISNVQSEDLADYFCQQFVTYPYTFGGGTKLEIK
notes: as for B1
B12: F4.107.12 (antibody, human IgG1, V domains shown)
VH: EVQLQQSGPELVKPGASVKMSCKASGYTFTSYVLHWVRQKPGQGLEWIGYFNPYNDGTEYNEKFKGKAILTSDKSSSTAYMELNSLTSEDSAVYYCVGGTYYYGSSYPFAYWGQGTLVTVST
VL: DVVMTQISLSLPVSLGDQASISCRSSQSLIHSNGNTYLQWYLQKPGQSPKLLIYKVSNRLSGVPDRFSGSGSGTDFTLKISRVEAEDLGVYFCSQSTHVPYTFGGGTKLEIK
notes: as for B1
B13: F4.33.12 (antibody, human IgG1, V domains shown)
VH: QVQLQQSGAELVRPGSSVKISCKGSGYAFSSYWMNWVKQRPGQGLEWIGQIYPGDGDTNYNGKFKGKATLTADKSSSTAYMQLSSLTSEDSAVYFCARAGFYYGSDSSMDYWGQGTSVTVSS
VL: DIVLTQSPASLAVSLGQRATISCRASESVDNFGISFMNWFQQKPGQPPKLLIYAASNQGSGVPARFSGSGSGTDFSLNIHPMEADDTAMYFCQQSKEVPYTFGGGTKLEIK
notes: as for B1
B14: F4.180.1 (antibody, human IgG1, V domains shown)
VH: EVQLQQSAPELVKPGASVKMSCKTSGYTFTENIIHWVKQTHGKSLEWIGGINPDNGGTSYHQKFKGRTTLTIDKSSSTAYMELRSLTSDDSAVFFCARQAPLYWYFDIWGAGTTVTVSS
VL: DIVLTQSPASLAVSLGQRATISCRASESVDSYGNSLMHWFQQKPGQPPRLLIYRASNLESGIPARFSGSGSRTDFTLTITPVEADDVATYYCQQSNEDPWTFGGGTKLEIK
notes: as for B1
B15: F4.18.13 (antibody, human IgG1, V domains shown)
VH: QVQLQQSGPELVKPGASVKISCKASGYAFSSFWMNWVKQRPGEGLEWIGRIYPGDGDTNYNGKFKGKATLTADDSSSTAYMQLSSLTSVDSAVYFCAREVIAAVVTTDFDYWGQGTTLTVSS
VL: DIQMTQTTSSLSASLGDRVTISCRTSQDISNYLNWYLQKPDGTVKLLIYYTSGLHSGVPSRFSGSGSGTDYSLTISNLEPEDIATYFCQQGKTLPYTFGGGTKLEIK
notes: as for B1

How the values were obtained:
Human CD19-his protein = biological target: T1, Human CD19-his protein; assay: SPR Biacore, Ab captured on Protein A, CD19-His analyte
Procedure, shortened: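 Antibodies were captured on a Protein A chip at 25 °C in HBS-EP+. Human CD19-His was injected for 240 s at 30 μl/min at 5 concentrations from 200 nM (1:1 dilutions), with dissociation up to 600 s. Data were double-referenced and fitted to a Langmuir 1:1 model for apparent KD.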

[1] = biological target: T2, human CD19 exon1-3-His tag protein; assay: ELISA on coated human CD19 exon 1-3-His
Protocol: Human CD19-his protein (purchased from ACROBiosystems, catalog number: CD9-H52H2) was diluted with PBS to a final concentration of 4 μg/mL, and then added to a 96-well ELISA plate at 100 μl/well. The plate was sealed with a plastic film and incubated overnight at 4° C., the plate was washed 2 times with PBS the next day, and then a blocking solution [PBS+2% (w/w) BSA] was added for blocking at room temperature for 2 h. The blocking solution was poured off, and 100 nM gradiently diluted CD19 chimeric antibody or control antibody was added at 50 μl/well. After incubation at 37° C. for 2 h, the plate was washed 3 times with PBS. […] TMB substrate was added at 50 μl/well, and incubated at room temperature for 10 min, and then a stop solution (1.0 N HCl) was added at 50 μl/well. The OD450 nm values were read by an ELISA microplate reader (Multimode Plate Reader, EnSight, purchased from Perkin Elmer).
CD19 protein contains 4 exons in the extracellular region, in which exons 1-3 are located at the membrane-distal end and exon 4 is located at the membrane-proximal end. […] To identify the distribution of antigen binding epitopes of the chimeric antibodies, human CD19 exon 1-3-His (membrane-distal end) was used to coat at 2 μg/mL according to the ELISA method in example 5.1.

| Binder | Kd (Human CD19-his protein) | koff (Human CD19-his protein) | kon (Human CD19-his protein) | binding result [1] |
| --- | --- | --- | --- | --- |
| B1 | 13 nM | 0.000799 s⁻¹ | 61300 M⁻¹ s⁻¹ | no binding (tested: 100 nM) |
| B2 | 1.9 nM | 0.000388 s⁻¹ | 205000 M⁻¹ s⁻¹ | no binding (tested: 100 nM) |
| B3 | 0.734 nM | 0.000204 s⁻¹ | 278000 M⁻¹ s⁻¹ | no binding (tested: 100 nM) |
| B4 | 15.3 nM | 0.00351 s⁻¹ | 229000 M⁻¹ s⁻¹ | no binding (tested: 100 nM) |
| B5 | 5.94 nM | 0.00147 s⁻¹ | 248000 M⁻¹ s⁻¹ | no binding (tested: 100 nM) |
| B6 | 0.337 nM | 8.9e-05 s⁻¹ | 264000 M⁻¹ s⁻¹ | no binding (tested: 100 nM) |
| B7 | 9.47 nM | 0.0019 s⁻¹ | 201000 M⁻¹ s⁻¹ | no binding (tested: 100 nM) |
| B8 | 0.904 nM | 0.000167 s⁻¹ | 185000 M⁻¹ s⁻¹ | no binding (tested: 100 nM) |
| B9 | 2.72 nM | 0.000949 s⁻¹ | 348000 M⁻¹ s⁻¹ | no binding (tested: 100 nM) |
| B10 | 3.71 nM | 0.000918 s⁻¹ | 247000 M⁻¹ s⁻¹ | no binding (tested: 100 nM) |
| B11 | 3.68 nM | 0.000591 s⁻¹ | 161000 M⁻¹ s⁻¹ | no binding (tested: 100 nM) |
| B12 | 1.09 nM | 0.000217 s⁻¹ | 200000 M⁻¹ s⁻¹ | no binding (tested: 100 nM) |
| B13 | 3.45 nM | 0.000452 s⁻¹ | 131000 M⁻¹ s⁻¹ | no binding (tested: 100 nM) |
| B14 | 0.359 nM | 8.52e-05 s⁻¹ | 237000 M⁻¹ s⁻¹ | no binding (tested: 100 nM) |
| B15 | 0.362 nM | 0.000171 s⁻¹ | 472000 M⁻¹ s⁻¹ | no binding (tested: 100 nM) |
